Test results as given in the Human Domainome abundance scans (Beltran et al. 2025).

B1: Histone-lysine N-methyltransferase 2A, residues 1148 to 1194; numbered along this chain, Q03164 (parent)
chain: KGRRSRRCGQCPGCQVPEDCGVCTNCLDKPKFGGRNIKKQCCKMRKC

Variants of: B1
Assay: abundance fitness (aPCA) (normalised: wild type 0, dead -1); higher = more abundant; growth selection in yeast, the domain comes from the species named
Details: Homo sapiens

Abundance fitness of substitutions, site by site:
D19: M -0.339 | A -0.797 | K -0.898 | P -0.935 | I -1.24 | Y -0.859 | R -0.775 | N -0.624 | F -1.02 | H -0.677
Q10: V -0.296 | I -0.02 | F -0.284 | A 0.031 | M -0.246 | E -0.183 | D -0.589 | C -0.459 | P -0.48 | Y -0.69 | H -0.189 | S -0.069 | N -0.436 | T -0.23 | G -0.235 | W -0.381 | R -0.234 | L -0.322
C14: Y -0.554 | R -0.784 | P -0.765 | S -0.49 | G -0.559 | T -0.728 | A -0.738 | N -0.288 | V -0.7 | Q -0.183 | M -0.713 | D -0.779 | I -0.663 | F -0.913 | L -0.916 | W -0.727
V16: Y -0.178 | I -0.066 | M 0.159 | R 0.196 | S -0.168 | W -0.285 | H -0.3 | P -0.414 | L 0.205 | N 0.146 | K 0.103 | T 0.173 | D -0.783 | C -0.468 | G -0.705 | Q 0.223 | A -0.278 | E -0.522
G2: D 0.186 | E 0.013 | S -0.213 | F -0.701 | V -0.275 | Q -0.007 | L -0.303 | R -0.413 | K -0.569 | A -0.403 | W -0.79
E18: Q -0.177 | A -0.089 | D -0.182 | S -0.092 | K -0.002 | H -0.17 | Y -0.264 | P -0.495 | C -0.485 | I -0.364 | G -0.469 | V -0.093 | R -0.049 | T -0.164 | N -0.161 | W -0.1 | M -0.22 | L -0.213
R6: P 0.054 | I 0.019 | N 0.158 | E 0.138 | C -0.407 | T -0.179 | D 0.143 | W -0.064 | K -0.143 | V -0.204 | H 0.089 | F 0.1 | A 0.182 | L -0.014 | M -0.171 | G -0.088 | Y -0.207 | S 0.06
R4: V 0.103 | W -0.54 | D 0.045 | F -0.15 | A -0.035 | Y -0.184 | S -0.004 | K 0.186 | M 0.141 | E 0.068 | G 0.125 | I -0.074 | T 0.148 | P -0.01 | L -0.06 | H -0.279
S5: P -0.137 | Y -0.459 | M -0.236 | Q 0.07 | L -0.132 | G -0.169 | T -0.24 | C -0.644 | F 0.163 | K -0.093 | E -0.091 | H -0.25 | I -0.604 | N -0.161 | R -0.226 | D -0.037 | A -0.19
R3: I -0.281 | M 0.056 | G -0.091 | A -0.123 | K 0.161 | E -0.038 | F 0.097 | C 0.012 | Y -0.301 | N 0.017 | D -0.185 | Q 0.023 | H -0.403 | W -0.518 | V 0.11
K1: V -0.43 | S -0.232 | E 0.47 | Y -0.299 | G -0.676 | P -0.662 | M -0.337 | R -0.285 | D -0.341 | T -0.659
